Assay results reported in patent publication US7070943B2 (priority 1998, dated 2006).

Assays:
Format in all cases: cell-based, Human
[1] = system: p21^WAF1/CIP1; experiment: Western blot of p21^WAF1/CIP1 in U937 cells; conditions: U937, 170 nM, 72 hours
Description: (§1) To reveal specificity of the antibodies that were used, a standard immunoblotting procedure was used on cellular lysates.

[2] = system: p21^WAF1/CIP1; experiment: p21^WAF1/CIP1 expression by flow cytometry in U937 cells; conditions: U937, 170 nM, 72 hours
Method: Following incubations in the absence or presence of ONCONASE®, the cells were washed with phosphate-buffered saline (PBS) and fixed in suspension in either ice-cold 80% ethanol or absolute methanol for up to 24 h. After fixation, the cells were washed twice with PBS and then suspended in 1 ml of 0.25% Triton X-100 (Sigma, St. Louis, Mo., USA) in PBS on ice for 5 min. The cells were then centrifuged (300 g, 5 min), the cell pellet suspended 100 μl PBS containing 0.5 μg of the anti-cyclin (or anti-CKI) mAb and 1% bovine serum albumin (BSA; Sigma), and incubated for 2 h at room temperature. […]
Cellular fluorescence was measured with the ELITE ESP flow cytometer/cell sorter (Coulter, Miami, Fla., USA) using either argon ion laser (emission at 488 nm) alone or combined with helium-cadmium laser (emitting UV light). In the first case, fluorescence signals were collected using the standard configuration of the flow cytometer (green fluorescence, representing directly or indirectly FITC-labeled antibodies; red fluorescence representing CYCHROME® tagged anti-pRB^T mAb). In the second case, DNA content was analyzed based on DAPI fluorescence (blue emission) excited by UV light, while the anti-pRB^P− mAb (FITC) and anti-pRB^T (Cy-Chrome®) related emission was excited with blue light laser.

[3] = system: p27^KIP1; experiment: Western blot of p27^KIP1 in U937 cells; conditions: U937, 17 and 170 nM, 72 h; not detected in Exp cells
Description: as §1

[4] = system: U937 cells; experiment: Growth and viability of U937 cells, trypan blue exclusion; conditions: U937, 170 nM (20 μg/ml)
Description: FIG. […] The percentage of dead cells was estimated based on the trypan blue exclusion test. The percentage of cells in the respective phases was estimated flow cytometrically based on their DNA content. Apoptotic cells (Ap) were recognized as the cells with fractional DNA content (sub-G1), as previously described;
Human histiocytic lymphoma U-937 cells were purchased from American Type Culture Collection (Manassas, Va., USA) and were maintained in RPMI 1640 medium supplemented with 10% fetal bovine serum, 100 U/ml of penicillin, 100 μg/ml streptomycin and 2 mM glutamine (all from Life Technologies, Grand Island, N.Y., USA). The suspension cultures were passaged by re-seeding the cells at a density of 1×10^5 cells/ml. The cells were studied during their exponential and asynchronous growth, generally within 72 hours of their re-seeding in medium with fresh serum, before reaching density of 8×10^5 cells/ml. The cultures were periodically tested for Mycoplasma infection by staining of cytocentrifuge preparations with the DNA fluorochrome 4,6-diamidino-2-phenylindole (DAPI; Molecular Probes, Eugene, Oreg., USA).
ONCONASE®, provided by Alfacell (Bloomfield, N.J., USA), was diluted in RPMI to the final concentrations as shown in the Results below and figure legends above. […]

[5] = system: cyclin D3; experiment: Cyclin D3 expression by multiparameter flow cytometry in U937 cells; conditions: U937, 170 nM
Method: Anti-cyclin D3 mAb immunofluorescence in combination with DNA content was measured by multiparameter flow cytometry (a). […] There were 48%, 38% and 14% of cells in G1, S, and G2/M in Exp culture compared with 64%, 24% and 13% cells in G1, S, and G2/M, respectively, in Onc culture. The scattergrams represent bivariate distributions of the cells with respect to their cyclin D3 vs. DNA content associated fluorescence intensities. The upper level of the isotype-matched control (mean fluorescence+3 standard deviations) is marked in the Exp panel with a dashed line. The bar plots represent the mean FITC (anti-cyclin D3 mAb) fluorescence values (arbitrary units) of the cells in different phases of the cycle (gated based on differences in DNA content as shown in the Exp panel), after subtraction of the background fluorescence, i.e., mean fluorescence of the same cells but stained with isotype-matched control IgG antibody. […]
Cellular fluorescence was measured with the ELITE ESP flow cytometer/cell sorter (Coulter, Miami, Fla., USA) using either argon ion laser (emission at 488 nm) alone or combined with helium-cadmium laser (emitting UV light). […] In the second case, DNA content was analyzed based on DAPI fluorescence (blue emission) excited by UV light, while the anti-pRB^P− mAb (FITC) and anti-pRB^T (Cy-Chrome®) related emission was excited with blue light laser.

[6] = system: cyclin D3; experiment: Western blot of cyclin D3 in U937 cells; conditions: U937, 48 h
Method: Anti-cyclin D3 mAb immunofluorescence in combination with DNA content was measured by multiparameter flow cytometry (a). The cells were growing either in the absence (Exp, exponential growth) or in the presence of 170 nM ONCONASE® for 48 hours (Onc). There were 48%, 38% and 14% of cells in G1, S, and G2/M in Exp culture compared with 64%, 24% and 13% cells in G1, S, and G2/M, respectively, in Onc culture. The scattergrams represent bivariate distributions of the cells with respect to their cyclin D3 vs. DNA content associated fluorescence intensities. The upper level of the isotype-matched control (mean fluorescence+3 standard deviations) is marked in the Exp panel with a dashed line. The bar plots represent the mean FITC (anti-cyclin D3 mAb) fluorescence values (arbitrary units) of the cells in different phases of the cycle (gated based on differences in DNA content as shown in the Exp panel), after subtraction of the background fluorescence, i.e., mean fluorescence of the same cells but stained with isotype-matched control IgG antibody. Western blots (b) show expression of cyclin D3 in control culture and in the culture treated with Onconase 48 h;
as §1

B1: ONCONASE®: basic protein of 12,000 MW isolated from oocytes or early embryos of Rana pipiens, homologous to pancreatic RNase A (protein, UniProt P22069 1-104, looked up)
Protein P-30: QDWLTFQKKHITNTRDVDCDNIMSTNLFHCKDKNTFIYSRPEPVKAICKGIIASKNVLTTSEFYLSDCNVTSRPCKYKLKKSTNKFCVTCENQAPVHFVGVGSC
- p21^WAF1/CIP1 band, Western blot [1]: band only in the ONCONASE®-treated cells
- increase in p21^WAF1/CIP1 [2]: Over four-fold
- p27^KIP1 bands, Western blot [3]: strong bands
- cell proliferation suppressed ([4]; initial 72 hours of treatment): approximately 50%
- cells dead ([4]; initial 72 hours, trypan blue): < 10%
- decrease of overall level of cyclin D3 ([5]; after 24 h): about 20%
- reduction of overall level of cyclin D3 ([5]; after 48 hours): over 70%
- expression of cyclin D3, Western blot [6]: decrease in expression of cyclin D3
